Measurements: patent US20250002594A1 (SHANGHAI EPIMAB BIOTHERAPEUTICS, published 2025)
One block for each binder: values may come before it.

Key:
recombinant human CD122 = biological target: T1, recombinant human CD122 (human, UniProt P14784 27-239, limits assumed); test: hybridoma supernatant screening, method not described
T1 construct: also called IL-2Rβ
T1 sequence (looked up): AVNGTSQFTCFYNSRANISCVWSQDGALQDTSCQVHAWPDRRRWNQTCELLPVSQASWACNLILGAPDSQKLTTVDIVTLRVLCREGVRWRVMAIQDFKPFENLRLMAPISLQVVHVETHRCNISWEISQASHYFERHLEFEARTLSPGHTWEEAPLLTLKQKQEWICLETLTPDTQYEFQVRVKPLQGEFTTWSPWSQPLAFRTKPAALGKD

recombinant human CD132 = biological target: T2, recombinant human CD132 (human, UniProt P31785 23-262, limits assumed); test: as above
T2 construct: also called IL-2Rγ
T2 sequence (looked up): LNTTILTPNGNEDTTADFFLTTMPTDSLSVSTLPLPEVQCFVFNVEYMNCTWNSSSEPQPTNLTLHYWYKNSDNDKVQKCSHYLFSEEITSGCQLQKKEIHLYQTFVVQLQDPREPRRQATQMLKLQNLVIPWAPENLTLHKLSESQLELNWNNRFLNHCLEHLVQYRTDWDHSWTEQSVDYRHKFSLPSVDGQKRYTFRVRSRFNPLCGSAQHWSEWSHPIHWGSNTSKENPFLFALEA

- binding result (recombinant human CD122): binds
B1: CD122-mAb77 (antibody, V domains shown)
VH: QVQLQQSGPELVKPGASVKMSCKASGYRFSDYVISWVKQRSGQGLEWIGEIYPGDGNTYYNEMFKGRATLTADKSPNTAYMKLSSLTSEDSALYFCARGSYTYDNYAMDFWGQGTSVTVSS
VL: DVLMTQTPLSLPVSLGDQASISCRSSQNIVHSNGNTYLEWYLQKPGQSPKLLIYKVSNRFSGVPDRFSGSGSGTDFTLKISRVEAEDLGLYYCFQGSHIPWTFGGGTKLEIK
notes: Mouse hybridoma antibody; also called clone #CD122-mAb77

- binding result (recombinant human CD132): binds
B2: CD132-mAb17 (antibody, V domains shown)
VH: EVQLQQPGSELVRPGASVKLSCKASGYTFTSYWMHWMKQRPGQGLEWIGHIYLGGGATNYAEKFRSKATLTADTSSSTAYMQLSSLTSEDSAVYYCTRSQPYYYGMDSWGQGTSVTVSS
VL: DIQMTQTPSSLSASLGDRVTISCRASQDISNYLNWYQQKPDGTVKLLIYYKSRLHSGVPSRFSGSGSGTEYSLTINNLEQEDFATYFCHQGHTIPFTFGSGTKLEIK
notes: Mouse hybridoma antibody; also called clone #CD132-mAb17; mAb CD132-mAb17
